Source: article PMC11992055, “Identification of RING E3 pseudoligases in the TRIM protein family” (Nature Communications, 2025)

B1: TRIM6 RING domain (residues 1-87), wild type (domain or fragment, human, UniProt Q9C030 1-87, looked up)
chain: MTSPVLVDIREEVTCPICLELLTEPLSIDCGHSFCQACITPNGRESVIGQEGERSCPVCQTSYQPGNLRPNRHLANIVRRLREVVLG
notes: TRIM6, human, RING domain, residues 1-87; Forms dimers in solution by SEC-MALLS; The His6 tag is HRV 3C cleavable; also called TRIM6 RING WT; source: E. coli BL21, purified (Ni-NTA, size-exclusion chromatography)
B2: TRIM22 RING domain (residues 1-87), wild type (domain or fragment, human, UniProt Q8IYM9 1-87, looked up)
chain: MDFSVKVDIEKEVTCPICLELLTEPLSLDCGHSFCQACITAKIKESVIISRGESSCPVCQTRFQPGNLRPNRHLANIVERVKEVKMS
notes: TRIM22, human, RING domain, residues 1-87; Monomer-dimer equilibrium by SEC-MALLS; The His6 tag is HRV 3C cleavable; also called TRIM22 RING WT; source: E. coli BL21, purified (Ni-NTA, size-exclusion chromatography)

Molecular target: the molecule itself
Test: SEC-MALS; SEC-MALLS; Superdex 200 Increase 10/300; 120 µl sample at 1–6 mg/ml; 50 mM HEPES pH 7.5, 150 mM NaCl, 0.5 mM TCEP, 3 mM NaN3; 0.5 ml/min

Protein | stoichiometry N
B1 | 2
B2 | 2
